This assay has as its target Biotinylated peptide BubR1 WT (Q293 to R302) (human). Nature of the assay: pull-down.

“GST-tagged BubR1 TPR (wild type) (from UniProt O60566 1-230) (domain or fragment)” registered a fold of protein bound against the W295A peptide of 5 fold.

Source of the values: article doi:10.1101/2025.10.13.682252.
